Experimental findings from US20110091994A1, “Methods for Screening Compounds for Treating and/or Preventing an Hepatitis C Virus Infection” (priority 2008, published 2011) are described below.

The target of test [1] is T1, HCV ORFs (Gal4-DB fusions) (Hepatitis C virus genotype 1b, UniProt Q9WMX2).
T1 construct: expressed in transfected cells; host or cells: Saccharomyces cerevisiae MAV203 (IMAP1) / AH109 (IMAP2)
Type of test: binding, HCV genotype 1b, isolate con1. The following applies: human protein as prey.

For test [2], the system named is HCV ORFs (Gal4-DB fusions). Type of test: binding, HCV genotype 1b, isolate con1. The following applies: human protein listed by gene symbol; the value names the HCV protein it interacts with.
The target in the next test is T2, HCV proteins (Hepatitis C virus genotype 1b, UniProt Q9WMX2).
T2 construct: expressed in transfected cells
As to the kind of experiment: Validation by Y2H pairwise matrices.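 Also: yeast two-hybrid pairwise tests of interactions first found in Y2H screens of HCV bait proteins against human cDNA libraries.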 The format is binding.

The mark [3] stands for this setting: validation of interaction with HCV protein CORE.
[4] abbreviates: validation of interaction with HCV protein NS3.
The mark [5] stands for this setting: validation of interaction with HCV protein E2.

Like-named read-outs stand apart in the source and are kept apart here.
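For IMAP Y2H IMAP1 (number of IST) in this document: yeast two-hybrid screens using HCV genotype 1b proteins fused to Gal4-DB as baits against prey cDNA libraries from human spleen and foetal brain, IMAP1 via transformation and IMAP2 via mating.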
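For IMAP Y2H IMAP2 (number of IST) in this document: yeast two-hybrid screens using HCV genotype 1b proteins fused to Gal4-DB as baits against prey cDNA libraries from human spleen and foetal brain, IMAP1 via transformation and IMAP2 via mating.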
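For Interaction with viral protein in this document: yeast two-hybrid screens using HCV genotype 1b proteins fused to Gal4-DB as baits against prey cDNA libraries from human spleen and foetal brain, IMAP1 via transformation and IMAP2 via mating.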

Regarding AGRN, in test [1] (HCV protein CORE as bait), the “IMAP Y2H IMAP1 (number of IST)” value is 1. Moreover, in test [2], the “Interaction with viral protein” value is recorded as “CORE”. For the same substance, the Y2H matrices result with HCV proteins (setting [3]) is on record as “+”.
For the substance ANKRD12, in test [1] (HCV protein NS3 as bait), the “IMAP Y2H IMAP1 (number of IST)” value is given as 1. Moreover, the “Interaction with viral protein” value in test [2] was “NS3”. The Y2H matrices result with HCV proteins (setting [4]) was “+”.
Consider APOA1, for which the “Interaction with viral protein” value in test [2] was “NS3/4A and NS4B and NS2 and NS3”.
For ARNT, in test [1] (HCV protein NS3 as bait), the “IMAP Y2H IMAP1 (number of IST)” value was 1. Moreover, the “Interaction with viral protein” value in test [2] is “NS3”. Also, the Y2H matrices entry with HCV proteins (setting [4]) is given as “+”.
ASXL1: in test [1] (HCV protein NS3 as bait), the “IMAP Y2H IMAP1 (number of IST)” value stood at 1. In test [2], the “Interaction with viral protein” value is “NS5A and NS3”. Also, the Y2H matrices result in the test with HCV proteins (setting [4]) is reported as “+”.
Take AXIN1: in test [1] (HCV protein NS5A as bait), the “IMAP Y2H IMAP2 (number of IST)” value is 1. In addition, the “Interaction with viral protein” value in test [2] was “NS5A”.
As to BZRAP1, the “IMAP Y2H IMAP1 (number of IST)” value in test [1] (HCV protein NS3 as bait) was 1. For the same substance, the “Interaction with viral protein” value in test [2] was “NS3”. Besides, the Y2H matrices result in the test with HCV proteins (setting [4]) is given as “+”.
As for CADPS, the “IMAP Y2H IMAP2 (number of IST)” value in test [1] (HCV protein NS5A as bait) was 1. Moreover, in test [2], the “Interaction with viral protein” value is “NS5A”.
For CADPS2, in test [1] (HCV protein NS5A as bait), the “IMAP Y2H IMAP2 (number of IST)” value is reported as 1. Moreover, the “Interaction with viral protein” value in test [2] is “NS5A”.
For the substance CELSR2, the “IMAP Y2H IMAP1 (number of IST)” value in test [1] (HCV protein NS3 as bait) stood at 1. Also, the “Interaction with viral protein” value in test [2] was “NS3”. In the test with HCV proteins (setting [4]), the Y2H matrices result is “+”.
Consider CEP63, for which the “IMAP Y2H IMAP2 (number of IST)” value in test [1] (HCV protein NS5A as bait) came out at 1. For the same substance, the “Interaction with viral protein” value in test [2] is “NS5A”.
Turning to CEP152, the “IMAP Y2H IMAP1 (number of IST)” value in test [1] (HCV protein NS3 as bait) was determined as 1. In test [2], the “Interaction with viral protein” value was “NS3”. For the same substance, the Y2H matrices entry with HCV proteins (setting [4]) was “+”.
For CEP192, in test [1] (HCV protein NS3 as bait), the “IMAP Y2H IMAP1 (number of IST)” value came out at 1. In test [2], the “Interaction with viral protein” value is listed as “NS3”. Besides, in the test with HCV proteins (setting [4]), the Y2H matrices result is given as “+”.
Turning to CEP250, the “IMAP Y2H IMAP2 (number of IST)” value came out at 15 in test [1] (HCV protein NS5A as bait) and 1 in test [1] (HCV protein NS5B as bait). Also, the “Interaction with viral protein” value in test [2] is reported as “NS5A”.
Turning to CFP, the “IMAP Y2H IMAP1 (number of IST)” value in test [1] (HCV protein NS3 as bait) is given as 4. Moreover, the “Interaction with viral protein” value in test [2] is reported as “NS3”. For the same substance, the Y2H matrices result with HCV proteins (setting [4]) was “+”.
Regarding COL4A2, the “IMAP Y2H IMAP1 (number of IST)” value in test [1] (HCV protein CORE as bait) was found to be 1. The “Interaction with viral protein” value in test [2] is “CORE”. Moreover, the Y2H matrices result with HCV proteins (setting [3]) was “+”.
Regarding CSNK2B, the “IMAP Y2H IMAP1 (number of IST)” value in test [1] (HCV protein NS3 as bait) is recorded as 3. In test [2], the “Interaction with viral protein” value is listed as “NS3”. For the same substance, the Y2H matrices result with HCV proteins (setting [4]) is recorded as “+”.
For DOCK7, the “IMAP Y2H IMAP2 (number of IST)” value in test [1] (HCV protein NS3 as bait) came to 2. The “Interaction with viral protein” value in test [2] was “NS3”.
Consider FBN3, for which the “IMAP Y2H IMAP1 (number of IST)” value in test [1] (HCV protein NS3 as bait) is recorded as 2. The “Interaction with viral protein” value in test [2] is “NS3”. The Y2H matrices entry with HCV proteins (setting [4]) is reported as “+”.
In the case of FHL2, in test [1] (HCV protein NS5A as bait), the “IMAP Y2H IMAP2 (number of IST)” value was 1. Besides, in test [2], the “Interaction with viral protein” value was “NS5A”.
Regarding FLAD1, the “IMAP Y2H IMAP1 (number of IST)” value in test [1] (HCV protein NS3 as bait) is 1. Moreover, the “Interaction with viral protein” value in test [2] is given as “NS3”. In the test with HCV proteins (setting [4]), the Y2H matrices entry is given as “+”.
The matching figures for GAA: 2, “NS3” and “+”.
On to GAPDH, for which, in test [1] (HCV protein CORE as bait), the “IMAP Y2H IMAP1 (number of IST)” value is recorded as 1. The “Interaction with viral protein” value in test [2] is listed as “CORE”. In addition, the Y2H matrices entry with HCV proteins (setting [3]) is recorded as “+”.
In the case of GFAP, the “IMAP Y2H IMAP1 (number of IST)” value in test [1] (HCV protein NS3 as bait) came out at 43. Further, in test [2], the “Interaction with viral protein” value is recorded as “NS3”. Further, the Y2H matrices result with HCV proteins (setting [4]) is given as “+”.
The matching figures for GON4L: 1, “NS3” and “+”.
Consider HIVEP2, for which, in test [1] (HCV protein CORE as bait), the “IMAP Y2H IMAP2 (number of IST)” value stood at 2. Further, in test [1] (HCV protein NS3 as bait), the “IMAP Y2H IMAP1 (number of IST)” value worked out at 3 and the “IMAP Y2H IMAP2 (number of IST)” value stood at 5. Also, the “Interaction with viral protein” value in test [2] was “NS3 and CORE”. Also, the Y2H matrices result with HCV proteins (setting [4]) is “+”.
As for HNRPK, the “IMAP Y2H IMAP2 (number of IST)” value in test [1] (HCV protein CORE as bait) is recorded as 14; in test [1] (HCV protein NS3 as bait) it was 1.
HOXD8: the “IMAP Y2H IMAP1 (number of IST)” value in test [1] (HCV protein CORE as bait), in test [1] (HCV protein E2 as bait), in test [1] (HCV protein NS2 as bait), in test [1] (HCV protein NS4A as bait) and in test [1] (HCV protein NS5B as bait) was 1 in each case. Also, the Y2H matrices entry in the test with HCV proteins (interaction with HCV protein NS5B), with HCV proteins (setting [3]), with HCV proteins (setting [5]), with HCV proteins (validation of interaction with HCV protein NS2) and in the test with HCV proteins (validation of interaction with HCV protein NS4A) was “+” throughout.
Take ITGB1: the “IMAP Y2H IMAP1 (number of IST)” value in test [1] (HCV protein E2 as bait) worked out at 1. The Y2H matrices entry in the test with HCV proteins (setting [5]) is listed as “+”.
